B1: CCND1 (parent)
chain: PEAEENKQIIRKHAQTFVALCATD
B2: ZNF649 (parent)
chain: DECEKAYFYMSCLVKHKRIHSREK

Variants of: B1
Assay: protein stability index of a GFP-peptide fusion (GPS, HEK-293T) (PSI 1-6); higher = more stable
Conditions: c terminus: a fixed tail appended
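Also: lentivirally expressed fusions sorted by FACS into six bins by GFP to DsRed ratio, PSI derived from sequencing read proportions per bin multiplied by bin number.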

Protein stability index, by site and new letter:
I9: Y 2.71 | K 2.45 | S 2.46 | E 3.89 | W 2.73 | T 2.18 | Q 2.81 | A 3.74 | L 3.36 | H 3.58 | R 2.17 | G 3.27 | P 3 | C 2.48 | F 2.86 | N 3.56 | V 3.04 | D 3.9 | M 3.53
K7: F 2.71 | T 2.64 | W 2.61 | A 3.37 | D 3.69 | L 2.95 | C 2.92 | E 3.84 | M 3.17 | N 3.78 | I 2.6 | Q 2.98 | R 3.25 | S 2.53 | H 3.36 | Y 2.62 | G 3.26 | V 2.54 | P 3.19
N6: C 1.93 | H 3.04 | W 2.42 | Y 3.05 | E 2.92 | R 2.22 | S 2.12 | P 2.12 | K 2.38 | V 1.85 | D 2.79 | L 1.88 | A 2.14 | T 2 | Q 2.59 | F 2.17 | G 2.35 | M 2.39 | I 2.26
P1: E 3.45 | H 3.19 | Q 2.78 | R 2.59 | D 3.29 | Y 3.2 | I 2.36 | K 2.07 | A 3.14 | C 1.97 | S 2.34 | V 2.66 | L 2.76 | G 2.78 | M 2.68 | T 2.18 | N 2.52 | F 2.44 | W 3.02
E2: I 2.27 | H 2.34 | P 2.83 | S 2.4 | A 2.54 | L 2.08 | G 2.92 | T 2.29 | Q 2.53 | V 2.8 | C 2.13 | R 1.87 | N 2.32 | F 2.14 | K 2.73 | M 2.98 | Y 2.69 | D 2.75 | W 1.81
Q8: S 2.58 | K 2.33 | P 1.95 | I 2.19 | L 2.45 | M 2.85 | W 2.05 | D 3.54 | R 3.07 | A 2.77 | N 3.13 | E 3.48 | C 2.24 | F 2.24 | V 2.07 | G 2.85 | T 1.7 | Y 2.55 | H 3.22
A3: G 2.8 | K 2.8 | V 3 | H 2.02 | Y 2.81 | F 2.71 | N 3.15 | I 2.93 | M 2.81 | D 3.27 | R 3.26 | W 2.85 | P 2.43 | C 2.31 | E 3.02 | Q 2.86 | T 2.15 | S 2.46 | L 2.89
E4: A 2.47 | R 2.33 | G 2.42 | H 2.67 | Q 2.39 | K 2.04 | V 2.38 | D 2.64 | P 3.27 | M 2.23 | T 2.1 | W 1.95 | Y 2.08 | C 3.62 | I 2.2 | S 2.21 | F 1.92 | N 2.36 | L 2.37
I10: A 2.79 | D 3.14 | C 3.13
E5: F 2.12 | T 1.69 | K 2.17 | N 2.25 | M 2.99 | A 2.05 | P 2.33 | R 1.93 | C 1.86 | V 2.55 | G 2.47 | D 2.93 | W 2.04 | S 1.79 | I 2.05 | H 2.24 | L 1.91 | Y 2.21 | Q 2.33

Variants of: B2
Assay: as above
Conditions: c terminus: a fixed tail appended

Protein stability index, by site and new letter:
H16: V 1.61 | P 2.92 | W 2.29 | Y 2.11 | Q 2.64 | S 3.06 | T 2.56 | R 2.82
K24: H 2.72 | A 2.1 | E 3.45 | Q 2.56 | M 1.97 | C 1.55 | F 1.85 | V 2.05 | I 2.12 | L 1.75 | Y 2.05 | S 3.13 | N 2.54 | T 1.98 | D 3.02 | R 2.42 | W 1.92 | G 2.31 | P 2.46
E23: A 3.48 | I 2.42 | V 2.2 | F 2.15 | Y 2.17 | N 2.38 | L 2.99 | P 2.1 | T 2.48 | H 2.36 | R 3.04 | W 2.23 | G 2.62 | D 2.81 | K 2.7 | Q 2.99 | M 1.8 | S 2.23 | C 3.15
I19: Q 3.42 | Y 2.34 | A 3.26 | W 2.81 | R 3.19 | G 3.27 | D 3.59 | F 2.53 | H 3.15 | E 3.93 | M 2.66 | K 2.9 | S 3.36 | L 2.4 | C 3.2 | N 2.97 | P 3.3 | V 3.18 | T 2.98
R18: H 2.62 | Q 2.56 | T 2.61 | A 2.53 | I 2.08 | G 2.72 | K 2.79 | W 2.34 | Y 2.52 | E 2.59 | S 2.56 | P 2.48 | C 2.32 | N 3.21 | V 2.36 | M 2.53 | D 2.87 | L 1.73 | F 2.4
K17: S 2.19 | T 2.27 | G 2.42 | H 2.05 | I 1.68 | L 1.91 | F 2.83 | W 2 | D 2.85 | Q 2.3 | N 2.45 | V 2.19 | M 1.61 | R 2.39 | E 2.54 | A 2.94 | P 2.35 | Y 2.14 | C 1.83
H20: N 2.57 | F 2.88 | Y 2.59 | P 3.15 | S 2.37 | L 2.48 | W 2.4 | Q 2.6 | M 2.1 | I 2.09 | G 2.55 | C 2.92 | A 2.22 | R 2.59 | T 2.12 | D 3.33 | V 2.24 | K 2.6 | E 3.6
S21: R 2.58 | M 2.13 | H 2.53 | P 2.08 | Q 2.95 | K 2.77 | V 2.65 | T 2.15 | W 1.61 | E 2.85 | I 2.61 | D 2.61 | A 2.48 | L 2.14 | Y 1.87 | C 3.33 | F 1.91 | G 2.29 | N 2.98
R22: L 1.43 | K 3.08 | C 2.36 | Y 2.16 | A 2.54 | Q 2.28 | F 2.09 | N 2.82 | H 2.39 | E 2.89 | G 2.19 | P 2.89 | V 2.32 | T 2.38 | M 2.22 | W 1.71 | D 2.8 | S 2.08 | I 2.24

From the supplement of paper PMC10567573
